According to patent US6365158:

Columns and labels:
[1] = molecular target: Crotalus durissus terrificus (C.d.t.) venom; test: ELISA, C.d.t. venom-coated wells, 1:5
[2] = molecular target: Crotalus durissus terrificus (C.d.t.) venom; test: ELISA, wells coated with 5 µg/ml C.d.t. venom, undiluted
[3] = molecular target: Crotalus durissus terrificus (C.d.t.) venom; test: ELISA, wells coated with 5 µg/ml C.d.t. venom, 1:25
[4] = molecular target: Crotalus durissus terrificus (C.d.t.) venom; test: ELISA, wells coated with 5 µg/ml C.d.t. venom, 1:3125
[5] = molecular target: Crotalus durissus terrificus (C.d.t.) venom; test: ELISA, C.d.t. venom-coated wells, 1:125
[6] = molecular target: Crotalus durissus terrificus (C.d.t.) venom; test: ELISA, C.d.t. venom-coated wells, IgY 1:62,500
[7] = molecular target: Crotalus durissus terrificus (C.d.t.) venom; test: ELISA, wells coated with 5 µg/ml C.d.t. venom, 1:625
[8] = molecular target: Crotalus durissus terrificus (C.d.t.) venom; test: ELISA, C.d.t. venom-coated wells, 1:3125
[9] = molecular target: Crotalus durissus terrificus (C.d.t.) venom; test: ELISA, C.d.t. venom-coated wells, 1:25
[10] = molecular target: Crotalus durissus terrificus (C.d.t.) venom; test: ELISA, wells coated with 5 µg/ml C.d.t. venom, 1:5
[11] = molecular target: Crotalus durissus terrificus (C.d.t.) venom; test: ELISA, C.d.t. venom-coated wells, IgY 1:312,500
[12] = molecular target: Crotalus durissus terrificus (C.d.t.) venom; test: ELISA, C.d.t. venom-coated wells, 1:625
[13] = molecular target: Crotalus durissus terrificus (C.d.t.) venom; test: ELISA, wells coated with 5 µg/ml C.d.t. venom, 1:125

preimmune IgY (antibody)
absorbance (ELISA) (absorbance at 412 nm) [1]: < 0
absorbance (ELISA) (absorbance at 412 nm) [2]: 0.003
absorbance (ELISA) (absorbance at 412 nm) [3]: 0
absorbance (ELISA) (absorbance at 412 nm) [4]: 0.002
absorbance (ELISA) (absorbance at 412 nm) [5]: < 0
absorbance (ELISA) (absorbance at 412 nm) [6]: 0.001
absorbance (ELISA) (absorbance at 412 nm) [7]: 0
absorbance (ELISA) (absorbance at 412 nm) [8]: < 0
absorbance (ELISA) (absorbance at 412 nm) [9]: 0.016
absorbance (ELISA) (absorbance at 412 nm) [10]: < 0
absorbance (ELISA) (absorbance at 412 nm) [11]: 0.01
absorbance (ELISA) (absorbance at 412 nm) [12]: < 0
absorbance (ELISA) (absorbance at 412 nm) [13]: 0.003
